1 molecule from PMC10268282, “Activator-induced conformational changes regulate division-associated peptidoglycan amidases” (Proceedings of the National Academy of Sciences of the …, 2023) can be followed below.

In this assay the target is T1, AmiB hydrolytic domain from Citrobacter rodentium (Citrobacter rodentium, UniProt A0A482PQR2 190-422).
T1 construct: AmiB peptidoglycan amidase, Citrobacter rodentium, hydrolytic (enzymatic) domain, cloned without the N-terminal AmiN domain; Construct limits and tags in SI Appendix; also called AmiB enzymatic domain
T1 sequence: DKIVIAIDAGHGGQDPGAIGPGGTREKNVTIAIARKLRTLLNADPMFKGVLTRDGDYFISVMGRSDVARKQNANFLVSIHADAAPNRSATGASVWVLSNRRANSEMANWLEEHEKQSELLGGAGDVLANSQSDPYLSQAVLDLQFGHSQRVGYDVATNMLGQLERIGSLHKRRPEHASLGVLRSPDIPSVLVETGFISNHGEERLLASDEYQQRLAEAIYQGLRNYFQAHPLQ
Kind of assay: crystal structure; X-ray crystallography, 3.4 Å; molecular replacement with Alphafold models. The conditions noted are these: both partners purified.

B1: EnvC LytM domain from Citrobacter rodentium (domain or fragment)
chain: MSRTGGLGSPRGQAYWPVRGPTLHRYGEQLQGELRWKGMVIGASEGTEVKAIADGRVILADWLQGYGLVVVVEHGKGDMSLYGYNQSALVSVGTQVRAGQPIALVGSSGGQGRPSLYFEIRRQGQAVNPQPWLGR
notes: EnvC, Citrobacter rodentium, LytM domain; Construct limits and tags in SI Appendix
As for B1, the binding result is “binds”.
